These results are taken from the RNAGym collection of RNA variant scans (doi:10.7554/elife.80360).

The chains are these.
B1: Twister Ribozyme (parent)
chain: AACACUGCCAAUGCCGGUCCCAAGCCCGGAUAAAAGUGGAGGGGGCGG

The variants in the data set derive from B1. As to the kind of experiment: self-cleavage, relative activity (ratio to wild type); higher = more cleavage; co-transcriptional.
In the case of AACACUGCCAAUGCCGGUGCCAAGCCCGGAAAAAAGUGGAGGGGGCGG, the self-cleavage was determined as 0.346. Consider AACACUGCCAAUGCCGGUGCCAAGCCCGGAUAAAAGUGGAGGGGGCUG, for which the self-cleavage worked out at 0.138. In the case of AACACUGCCAAUGCCGGUACCAAGCCCGGAUAAAAGUGGAGGGGGCGA, the self-cleavage was found to be 0.161. For AACACUGCCAAUGCCGGUACCAAGCCCGGAUAAAAGUGGAGGGGGCGC, the self-cleavage is 0.149. With AACACUGCCAAUGCCGGUGCCAAGCCCGGAUAAAAGUGGAGGGGGUGG, the self-cleavage came to 0.359. As for AACACUGCCAAUGCCGGUGCCAAGCCCGGAUAAAAGUGGAGGGGGGGG, the self-cleavage is 0.165. As to AACACUGCCAAUGCCGGUGCCAAGCCCGGAUAACAGUGGAGGGGGCGG, the self-cleavage was determined as 0.0815. As to AACACUGCCAAUGCCGGUGCCAAGCCCGGAUAUAAGUGGAGGGGGCGG, the self-cleavage was 0.187.

Take AACACUGCCAAUGCCGGUGCCAAGCCCGGAUAGAAGUGGAGGGGGCGG: the self-cleavage was 0.175. In the case of AACACUGCCAAUGCCGGUGCCAUGCCCGGAUAAAAGUGGAGGGGGCGG, the self-cleavage was 0.11.

With AACACUGCCAAUGCCGGUGCCAAGCCCGGAUAAAAGUGGAGGGGGCGA, the self-cleavage was determined as 0.167. For AACACUGCCAAUGCCGGUGCCAAGCCCAGAUAAAAGUGGAGGGGGCGG, the self-cleavage was determined as 0.211.

Turning to AACACUGCCAAUGCCGGUGCCAAGCCCUGAUAAAAGUGGAGGGGGCGG, the self-cleavage came to 0.212.

Regarding AACACUGCCAAUGCCGGUGCCAAGCCCGGAUAAAAGUGGAGGGGGCGG, the self-cleavage worked out at 0.485.

For AACACUGCCAAUGCCGGUUCCAAGCCCGGAUAAAAGUGGAGGGGGCGG, the self-cleavage came to 1.05. Consider AACACUGCCAAUGCCGGUGCCAAGCCCGGAUAAACGUGGAGGGGGCGG, for which the self-cleavage was found to be 0.393. On to AACACUGCCAAUGCCGGUGCCAAGCCCGGAUAAAUGUGGAGGGGGCGG, for which the self-cleavage turned out to be 0.34. Consider AACACUGCCAAUGCCGGUGCCAAGCCCGGAUAAAAUUGGAGGGGGCGG, for which the self-cleavage was 0.099.

For the variant AACACUGCCAAUGCCGGUACCAAGCCCGGAUAAAAGUGGAGGGGCCGG, the self-cleavage is 0.233. Turning to AACACUGCCAAUGCCGGUGCCAAGCCCGGAUAAAAGUGGCGGGGGCGG, the self-cleavage amounted to 0.132.

Turning to AACACUGCCAAUGCCGGUACCAAGCCCGGAUAAAAGAGGAGGGGGCGG, the self-cleavage stood at 0.0721. With AACACUGCCAAUGCCGGUACCAAGCCCGGAUAAAAGUGGAGGAGGCGG, the self-cleavage came to 0.355. For the variant AACACUGCCAAUGCCGGUACCAAGCCCGGAUAAAAGUGGAGGUGGCGG, the self-cleavage is 0.732. As to AACACUGCCAAUGCCGGUGCCAAGCCCGGGUAAAAGUGGAGGGGGCGG, the self-cleavage turned out to be 0.468.

Turning to AACACUGCCAAUGCCGGUGCCAAGCCCGGUUAAAAGUGGAGGGGGCGG, the self-cleavage worked out at 0.456. Regarding AACACUGCCAAUGCCGGUGCCAAGCCCGGAUAAAAGGGGAGGGGGCGG, the self-cleavage stood at 0.0722. On to AACACUGCCAAUGCCGGUGCCAAGCCCGGAUCAAAGUGGAGGGGGCGG, for which the self-cleavage came to 0.386. AACACUGCCAAUGCCGGUGCCAAGCCCGGAUUAAAGUGGAGGGGGCGG: the self-cleavage was 0.287. Take AACACUGCCAAUGCCGGUGCCAAUCCCGGAUAAAAGUGGAGGGGGCGG: the self-cleavage was 0.0534. On to AACACUGCCAAUGCCGGUGCCAAGCCCGGAUAAAAGUGGAGGGGCCGG, for which the self-cleavage was found to be 0.231.

With AACACUGCCAAUGCCGGUGCCAAGCCCGGAUAAAAGUGGAGGGGUCGG, the self-cleavage was 0.174.

As to AACACUGCCAAUGCCGGUGCCAAGCCCGGAUAAAAGUUGAGGGGGCGG, the self-cleavage is 0.0929.

For AACACUGCCAAUGCCGGUGCCAAGCCCGGAUAAAAGUCGAGGGGGCGG, the self-cleavage came to 0.152. For AACACUGCCAAUGCCGGUGCGAAGCCCGGAUAAAAGUGGAGGGGGCGG, the self-cleavage is 0.0223. Turning to AACACUGCCAAUGCCGGUGCCAAGCCCGGAUAAAAGUGGAGGGAGCGG, the self-cleavage stood at 0.351. AACACUGCCAAUGCCGGUGCCAAGCCUGGAUAAAAGUGGAGGGGGCGG: the self-cleavage was determined as 0.131.

Turning to AACACUGCCAAUGCCGGUUCCGAGCCCGGAUAAAAGUGGAGGGGGCGG, the self-cleavage was found to be 0.0788. For AACACUGCCAAUGCCGGUGCCAAGCUCGGAUAAAAGUGGAGGGGGCGG, the self-cleavage came to 0.0735. For the variant AACACUGCCAAUGCCGGUUCCAUGCCCGGAUAAAAGUGGAGGGGGCGG, the self-cleavage amounted to 0.203. Turning to AACACUGCCAAUGCCGGUUCCAGGCCCGGAUAAAAGUGGAGGGGGCGG, the self-cleavage amounted to 0.219. Regarding AACACUGCCAAUGCCGGUGGCAAGCCCGGAUAAAAGUGGAGGGGGCGG, the self-cleavage came out at 0.0478.

With AACACUGCCAAUGCCGGUGCCAAGCCCGGAUAAAAGUGGAGUGGGCGG, the self-cleavage was determined as 0.0912. Consider AACACUGCCAAUGCCGGUGCCAAGCCCGGAUAAAAGUGGAGCGGGCGG, for which the self-cleavage was found to be 0.139. Regarding AACACUGCCAAUGCCGGUGCCAAGCCCGAAUAAAAGUGGAGGGGGCGG, the self-cleavage was 0.258.

Consider AACACUGCCAAUGCCGGUACCAAGCCCGGAUAAAAGUGGAGGGCGCGG, for which the self-cleavage was 0.746. Turning to AACACUGCCAAUGCCGGUACCAAGCCCGGAUAAAAGUGGAGGGUGCGG, the self-cleavage worked out at 0.679. With AACACUGCCAAUGCCGGUGCCAAGACCGGAUAAAAGUGGAGGGGGCGG, the self-cleavage amounted to 0.0881. As for AACACUGCCAAUGCCGGUACCAAGCCCGGACAAAAGUGGAGGGGGCGG, the self-cleavage turned out to be 0.375. Consider AACACUGCCAAUGCCGGUACCAAGCCCGGAAAAAAGUGGAGGGGGCGG, for which the self-cleavage is 0.219. As for AACACUGCCAAUGCCGGUGCCUAGCCCGGAUAAAAGUGGAGGGGGCGG, the self-cleavage was determined as 0.0871.

Turning to AACACUGCCAAUGCCGGUGCCCAGCCCGGAUAAAAGUGGAGGGGGCGG, the self-cleavage came to 0.219.

Take AACACUGCCAAUGCCGGUGCCAAGCCCGGAUAAAAGUGGAGGCGGCGG: the self-cleavage amounted to 0.711. For AACACUGCCAAUGCCGGUGCCAAGCCCGGAUAAAAGUGGAGGAGGCGG, the self-cleavage came out at 0.242.

Take AACACUGCCAAUGCCGGUACCAAGCCCGGAUAAAAGUGGAGGGGGCUG: the self-cleavage was 0.131.
